In PMC5877399 (Biomacromolecules, 2014):
Values belong to the binder of their own block, whether it stands above or below them. *: point of attachment. Ru(bipy)3 = tris(bipyridine)ruthenium complex attached to the Lys ε-amine via an NHS ester; Palmitoyl = CCCCCCCCCCCCCCCC(=O)*

B1: PA2-Gd(DO3A), palmitoyl-MAAAEEEEK(DO3A:Gd)-NH2 (peptide)
peptide: MAAAEEEEK
modifications: not fully specified; palmitoyl on the N-terminus; K(DO3A:Gd); C-terminal amide (NH2)

Experiments:
[1] = target: T1, PA1-Gd(DO3A), palmitoyl-IAAAEEEEK(DO3A:Gd)-NH2 (not fully specified (residue 9); printed as palmitoyl-IAAAEEEEK(DO3A:Gd)-NH2; also: Gd complex of DO3A); assay: fluorescence polarisation
T1 peptide: Palmitoyl-IAAAEEEEK-NH2

[2] = target: B1; assay: fluorescence polarisation
[3] = target: the molecule itself; assay: circular dichroism spectroscopy

- binding result [1]: binds
Binder: Palmitoyl-IAAAEEEEK(Ru(bipy)3)-NH2 (also: Ru(bipy)3 via NHS ester linker, Ru complex) [PA1-Ru(bipy)3, palmitoyl-IAAAEEEEK[Ru(bipy)3]-NH2]

- binding result [2]: binds
Binder: Palmitoyl-MAAAEEEEK(Ru(bipy)3)-NH2 (also: Ru(bipy)3 via NHS ester linker, Ru complex) [PA2-Ru(bipy)3, palmitoyl-MAAAEEEEK[Ru(bipy)3]-NH2]

Binder: B1
- binding result [3]: binds
